The source of these data is patent publication US10087231B2, “Substitution mutant receptors and their use in an ecdysone receptor-based inducible gene expression system” (Intrexon Corporation, priority 2001, dated 2018).

B1: D450E/A451V/K452R: HsRXRβ ligand binding domain triple substitution mutant (protein)
chain: MGPKKKRKVAPPTDVSLGDELHLDGEDVAMAHADALDDFDLDMLGDGDSPGPGFTPHDSAPYGALDMADFEFEQMFTDALGIDEYGGEFPAPEEMPVDRILEAELAVEQKSDQGVEGPGGTGGSGSSPNDPVTNICQAADKQLFTLVEWAKRIPHFSSLPLDDQVILLRAGWNELLIASFSHRSIDVRDGILLATGLHVHRNSAHSAGVGAIFDRVLTELVSKMRDMRMDKTELGCLRAIILFNPEVRGLSNPSEVEVLREKVYASLETYCKQKYPEQQGRFAKLLLRLPALRSIGLKCLEHLFFFKLIGDTPIDTFLMEMLEAPHQLA
B2: E481D/Q482E/Q483P: HsRXRβ ligand binding domain triple substitution mutant (protein)
chain: MGPKKKRKVAPPTDVSLGDELHLDGEDVAMAHADALDDFDLDMLGDGDSPGPGFTPHDSAPYGALDMADFEFEQMFTDALGIDEYGGEFPAPEEMPVDRILEAELAVEQKSDQGVEGPGGTGGSGSSPNDPVTNICQAADKQLFTLVEWAKRIPHFSSLPLDDQVILLRAGWNELLIASFSHRSIDVRDGILLATGLHVHRNSAHSAGVGAIFDRVLTELVSKMRDMRMDKTELGCLRAIILFNPDAKGLSNPSEVEVLREKVYASLETYCKQKYPDEPGRFAKLLLRLPALRSIGLKCLEHLFFFKLIGDTPIDTFLMEMLEAPHQLA
B3: C475T/K476R/Q477T/K478T/Y479H: HsRXRβ ligand binding domain quintuple substitution mutant (protein)
chain: MGPKKKRKVAPPTDVSLGDELHLDGEDVAMAHADALDDFDLDMLGDGDSPGPGFTPHDSAPYGALDMADFEFEQMFTDALGIDEYGGEFPAPEEMPVDRILEAELAVEQKSDQGVEGPGGTGGSGSSPNDPVTNICQAADKQLFTLVEWAKRIPHFSSLPLDDQVILLRAGWNELLIASFSHRSIDVRDGILLATGLHVHRNSAHSAGVGAIFDRVLTELVSKMRDMRMDKTELGCLRAIILFNPDAKGLSNPSEVEVLREKVYASLETYTRTTHPEQQGRFAKLLLRLPALRSIGLKCLEHLFFFKLIGDTPIDTFLMEMLEAPHQLA
B4: S455K/N456S/P457A/S458Q: HsRXRβ ligand binding domain quadruple substitution mutant (protein)
chain: MGPKKKRKVAPPTDVSLGDELHLDGEDVAMAHADALDDFDLDMLGDGDSPGPGFTPHDSAPYGALDMADFEFEQMFTDALGIDEYGGEFPAPEEMPVDRILEAELAVEQKSDQGVEGPGGTGGSGSSPNDPVTNICQAADKQLFTLVEWAKRIPHFSSLPLDDQVILLRAGWNELLIASFSHRSIDVRDGILLATGLHVHRNSAHSAGVGAIFDRVLTELVSKMRDMRMDKTELGCLRAIILFNPDAKGLKSAQEVEVLREKVYASLETYCKQKYPEQQGRFAKLLLRLPALRSIGLKCLEHLFFFKLIGDTPIDTFLMEMLEAPHQLA
B5: V462L: HsRXRβ ligand binding domain substitution mutant (protein, listed as Homo sapiens)
chain: MSWAARPPFLPQRHAAGQCGPVGVRKEMHCGVASRWRRRRPWLDPAAAAAAAVAGGEQQTPEPEPGEAGRDGMGDSGRDSRSPDSSSPNPLPQGVPPPSPPGPPLPPSTAPSLGGSGAPPPPPMPPPPLGSPFPVISSSMGSPGLPPPAPPGFSGPVSSPQINSTVSLPGGGSGPPEDVKPPVLGVRGLHCPPPPGGPGAGKRLCAICGDRSSGKHYGVYSCEGCKGFFKRTIRKDLTYSCRDNKDCTVDKRQRNRCQYCRYQKCLATGMKREAVQEERQRGKDKDGDGEGAGGAPEEMPVDRILEAELAVEQKSDQGVEGPGGTGGSGSSPNDPVTNICQAADKQLFTLVEWAKRIPHFSSLPLDDQVILLRAGWNELLIASFSHRSIDVRDGILLATGLHVHRNSAHSAGVGAIFDRVLTELVSKMRDMRMDKTELGCLRAIILFNPDAKGLSNPSEVELLREKVYASLETYCKQKYPEQQGRFAKLLLRLPALRSIGLKCLEHLFFFKLIGDTPIDTFLMEMLEAPHQLA
modifications: ligand binding domain only
B6: E472D: HsRXRβ ligand binding domain substitution mutant (protein, listed as Homo sapiens)
chain: MSWAARPPFLPQRHAAGQCGPVGVRKEMHCGVASRWRRRRPWLDPAAAAAAAVAGGEQQTPEPEPGEAGRDGMGDSGRDSRSPDSSSPNPLPQGVPPPSPPGPPLPPSTAPSLGGSGAPPPPPMPPPPLGSPFPVISSSMGSPGLPPPAPPGFSGPVSSPQINSTVSLPGGGSGPPEDVKPPVLGVRGLHCPPPPGGPGAGKRLCAICGDRSSGKHYGVYSCEGCKGFFKRTIRKDLTYSCRDNKDCTVDKRQRNRCQYCRYQKCLATGMKREAVQEERQRGKDKDGDGEGAGGAPEEMPVDRILEAELAVEQKSDQGVEGPGGTGGSGSSPNDPVTNICQAADKQLFTLVEWAKRIPHFSSLPLDDQVILLRAGWNELLIASFSHRSIDVRDGILLATGLHVHRNSAHSAGVGAIFDRVLTELVSKMRDMRMDKTELGCLRAIILFNPDAKGLSNPSEVEVLREKVYASLDTYCKQKYPEQQGRFAKLLLRLPALRSIGLKCLEHLFFFKLIGDTPIDTFLMEMLEAPHQLA
modifications: ligand binding domain only
B7: T473E: HsRXRβ ligand binding domain substitution mutant (protein, listed as Homo sapiens)
chain: MSWAARPPFLPQRHAAGQCGPVGVRKEMHCGVASRWRRRRPWLDPAAAAAAAVAGGEQQTPEPEPGEAGRDGMGDSGRDSRSPDSSSPNPLPQGVPPPSPPGPPLPPSTAPSLGGSGAPPPPPMPPPPLGSPFPVISSSMGSPGLPPPAPPGFSGPVSSPQINSTVSLPGGGSGPPEDVKPPVLGVRGLHCPPPPGGPGAGKRLCAICGDRSSGKHYGVYSCEGCKGFFKRTIRKDLTYSCRDNKDCTVDKRQRNRCQYCRYQKCLATGMKREAVQEERQRGKDKDGDGEGAGGAPEEMPVDRILEAELAVEQKSDQGVEGPGGTGGSGSSPNDPVTNICQAADKQLFTLVEWAKRIPHFSSLPLDDQVILLRAGWNELLIASFSHRSIDVRDGILLATGLHVHRNSAHSAGVGAIFDRVLTELVSKMRDMRMDKTELGCLRAIILFNPDAKGLSNPSEVEVLREKVYASLEEYCKQKYPEQQGRFAKLLLRLPALRSIGLKCLEHLFFFKLIGDTPIDTFLMEMLEAPHQLA
modifications: ligand binding domain only
B8: G321L/P322R/G323V: HsRXRβ ligand binding domain triple substitution mutant (SEQ ID NO: 2) (protein, listed as Homo sapiens)
chain: MSWAARPPFLPQRHAAGQCGPVGVRKEMHCGVASRWRRRRPWLDPAAAAAAAVAGGEQQTPEPEPGEAGRDGMGDSGRDSRSPDSSSPNPLPQGVPPPSPPGPPLPPSTAPSLGGSGAPPPPPMPPPPLGSPFPVISSSMGSPGLPPPAPPGFSGPVSSPQINSTVSLPGGGSGPPEDVKPPVLGVRGLHCPPPPGGPGAGKRLCAICGDRSSGKHYGVYSCEGCKGFFKRTIRKDLTYSCRDNKDCTVDKRQRNRCQYCRYQKCLATGMKREAVQEERQRGKDKDGDGEGAGGAPEEMPVDRILEAELAVEQKSDQGVELRVGTGGSGSSPNDPVTNICQAADKQLFTLVEWAKRIPHFSSLPLDDQVILLRAGWNELLIASFSHRSIDVRDGILLATGLHVHRNSAHSAGVGAIFDRVLTELVSKMRDMRMDKTELGCLRAIILFNPDAKGLSNPSEVEVLREKVYASLETYCKQKYPEQQGRFAKLLLRLPALRSIGLKCLEHLFFFKLIGDTPIDTFLMEMLEAPHQLA
B9: G500S: HsRXRβ ligand binding domain substitution mutant, glycine to serine at 500 (protein, listed as Homo sapiens)
chain: MSWAARPPFLPQRHAAGQCGPVGVRKEMHCGVASRWRRRRPWLDPAAAAAAAVAGGEQQTPEPEPGEAGRDGMGDSGRDSRSPDSSSPNPLPQGVPPPSPPGPPLPPSTAPSLGGSGAPPPPPMPPPPLGSPFPVISSSMGSPGLPPPAPPGFSGPVSSPQINSTVSLPGGGSGPPEDVKPPVLGVRGLHCPPPPGGPGAGKRLCAICGDRSSGKHYGVYSCEGCKGFFKRTIRKDLTYSCRDNKDCTVDKRQRNRCQYCRYQKCLATGMKREAVQEERQRGKDKDGDGEGAGGAPEEMPVDRILEAELAVEQKSDQGVEGPGGTGGSGSSPNDPVTNICQAADKQLFTLVEWAKRIPHFSSLPLDDQVILLRAGWNELLIASFSHRSIDVRDGILLATGLHVHRNSAHSAGVGAIFDRVLTELVSKMRDMRMDKTELGCLRAIILFNPDAKGLSNPSEVEVLREKVYASLETYCKQKYPEQQGRFAKLLLRLPALRSISLKCLEHLFFFKLIGDTPIDTFLMEMLEAPHQLA
modifications: ligand binding domain only

This experiment has as its system GAL4/CfEcR-DEF and pFRLuc in NIH3T3 cells. Type of experiment: cell-based, mouse. To be noted: 0.04-25 μM GS™-E, compared to wild-type HsRXRβ-EF. As for the experimental part: The resulting PCR nucleic acid products encoding the mutant RXR ligand binding domains were then each fused to a VP16 transactivation domain as described in Examples 1.3 and 1.6 above. The VP16/mutant RXR receptor constructs were tested for activity by transfecting them into NIH3T3 cells along with GAL4/CfEcR-DEF and pFRLuc in the presence of non-steroid ligand.
DNAs corresponding to the various switch constructs outlined in Example 1.1-1.6 were transfected into mouse NIH3T3 cells (ATCC) as follows. Standard methods for culture and maintenance of the cells were followed. […] Superfect™ (Qiagen Inc.) was used as the transfection reagent. For 12-well plates, 4 μl of Superfect™ was mixed with 100 μl of growth medium. One μg of reporter construct and 0.25 μg of each receptor construct of the receptor pair to be analyzed were added to the transfection mix. […] The cells were harvested and reporter activity was assayed.
Cells were harvested 40 hours after adding ligand. […] Twenty μl of lysate were assayed. […]
The cells were harvested and reporter activity was assayed as described above.
As discussed above, a CfEcR-based gene regulation system is ligand dependent when RXRs are used as the heterodimeric partner and ligand independent when USPs are used as the heterodimeric partner. However, reporter gene expression is induced at very high levels when CfUSP is used as the heterodimeric partner. To improve RXR as heterodimeric partner, Applicants have aligned the polypeptide sequences of several USP and RXR ligand binding domains (domains EF) and identified amino acid residues that are different between these two nuclear receptor family members. In particular, Applicants identified residues that are conserved in all USPs but are different in RXRs and mutated these residues in HsRXRβ. […] The cells were harvested and reporter activity was assayed as described above.
For the molecule B1, the non-steroid ligand sensitivity result was “improved non-steroid ligand sensitivity”. As for B2, the non-steroid ligand sensitivity result is reported as “improved non-steroid ligand sensitivity”. The entry for B3 is “improved non-steroid ligand sensitivity”; for B4 it is “improved non-steroid ligand sensitivity”; for B5 it is “improved non-steroid ligand sensitivity”.

As to B6, the non-steroid ligand sensitivity result is “improved ligand sensitivity”.

As for B7, the non-steroid ligand sensitivity result is recorded as “improved non-steroid ligand sensitivity”. Next, B8: “improved ligand sensitivity”. The entry for B9 is “improved ligand sensitivity”.
